In patent US20260014232A1, “Pharmaceutical Composition of GLP-1 and GIP Receptor Dual Agonist and Use Thereof” (Jiangsu Hengrui Pharmaceuticals Co., Ltd., priority 2021, published 2026):
Starred links: 1 amine or outer side, 2 acyl side, 3 side chain; linkers in the order of their positions; H or OH if unused. Non-standard residues stand in square brackets, D forms with d. Groups on a side chain read outwards from the residue. No end group written: not given here. *: point of attachment. Arachidoyl = CCCCCCCCCCCCCCCCCCCC(=O)*; γGlu = O=C(O)[C@H](CCC(=O)[*:2])N[*:1]; AEEA = NCCOCCOCC(=O)O; Aib = CC(C)(N)C(=O)O

How the values were obtained:
[1] = target: human glucagon-like peptide-1 receptor (GLP-1R) (human, UniProt P43220 24-463); assay: cell-based or functional assay
[2] = target: T1, human glucose-dependent insulinotropic polypeptide receptor (GIPR) (human, UniProt P48546 22-466); assay: cell-based or functional assay
T1 sequence (looked up): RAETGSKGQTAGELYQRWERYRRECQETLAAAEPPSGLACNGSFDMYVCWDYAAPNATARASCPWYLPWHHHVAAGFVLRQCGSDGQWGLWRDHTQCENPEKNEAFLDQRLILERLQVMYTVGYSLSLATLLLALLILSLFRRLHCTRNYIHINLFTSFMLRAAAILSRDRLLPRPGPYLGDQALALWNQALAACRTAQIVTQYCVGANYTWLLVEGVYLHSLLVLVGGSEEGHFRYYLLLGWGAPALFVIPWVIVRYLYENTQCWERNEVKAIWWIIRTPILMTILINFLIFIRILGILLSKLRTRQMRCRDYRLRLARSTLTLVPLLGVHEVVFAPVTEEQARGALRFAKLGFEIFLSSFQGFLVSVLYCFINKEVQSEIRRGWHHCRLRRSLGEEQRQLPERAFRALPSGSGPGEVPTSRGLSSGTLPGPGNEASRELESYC

Binder | Activity against human GLP-1R (EC50 nM); cAMP HTRF, CHO-K1/GLP-1R/CRE-luc cells [1] | Activity against human GIPR (EC50 nM); cAMP HTRF, CHO-K1 cells overexpressing hGIP receptor [2]
Y[Aib]EGTFTSDYSIYK([AEEA-AEEA-γGlu-Arachidoyl])ERIAAQEFINWLIAGGPSSGAPPPS-NH2 (N-terminus assumed; SMILES CCCCCCCCCCCCCCCCCCCC(=O)N[C@@H](CCC(=O)NCCOCCOCC(=O)NCCOCCOCC(=O)NCCCC[C@H](NC(=O)[C@H](Cc1ccc(O)cc1)NC(=O)[C@@H](NC(=O)[C@H](CO)NC(=O)[C@H](Cc1ccc(O)cc1)NC(=O)[C@H](CC(=O)O)NC(=O)[C@H](CO)NC(=O)[C@@H](NC(=O)[C@H](Cc1ccccc1)NC(=O)[C@@H](NC(=O)CNC(=O)[C@H](CCC(=O)O)NC(=O)C(C)(C)NC(=O)[C@@H](N)Cc1ccc(O)cc1)[C@@H](C)O)[C@@H](C)O)[C@@H](C)CC)C(=O)N[C@@H](CCC(=O)O)C(=O)N[C@@H](CCCNC(=N)N)C(=O)N[C@H](C(=O)N[C@@H](C)C(=O)N[C@@H](C)C(=O)N[C@@H](CCC(N)=O)C(=O)N[C@@H](CCC(=O)O)C(=O)N[C@@H](Cc1ccccc1)C(=O)N[C@H](C(=O)N[C@@H](CC(N)=O)C(=O)N[C@@H](Cc1c[nH]c2ccccc12)C(=O)N[C@@H](CC(C)C)C(=O)N[C@H](C(=O)N[C@@H](C)C(=O)NCC(=O)NCC(=O)N1CCC[C@H]1C(=O)N[C@@H](CO)C(=O)N[C@@H](CO)C(=O)NCC(=O)N[C@@H](C)C(=O)N1CCC[C@H]1C(=O)N1CCC[C@H]1C(=O)N1CCC[C@H]1C(=O)N[C@@H](CO)C(N)=O)[C@@H](C)CC)[C@@H](C)CC)[C@@H](C)CC)C(=O)O) [compound 15#] | 0.015 nM | 0.23 nM
Y[Aib]EGTFTSDYSIYK([AEEA-AEEA-γGlu-Arachidoyl])ERIAAQEFVNWLIAGGPSSGAPPPS-NH2 (N-terminus assumed; SMILES CCCCCCCCCCCCCCCCCCCC(=O)N[C@@H](CCC(=O)NCCOCCOCC(=O)NCCOCCOCC(=O)NCCCC[C@H](NC(=O)[C@H](Cc1ccc(O)cc1)NC(=O)[C@@H](NC(=O)[C@H](CO)NC(=O)[C@H](Cc1ccc(O)cc1)NC(=O)[C@H](CC(=O)O)NC(=O)[C@H](CO)NC(=O)[C@@H](NC(=O)[C@H](Cc1ccccc1)NC(=O)[C@@H](NC(=O)CNC(=O)[C@H](CCC(=O)O)NC(=O)C(C)(C)NC(=O)[C@@H](N)Cc1ccc(O)cc1)[C@@H](C)O)[C@@H](C)O)[C@@H](C)CC)C(=O)N[C@@H](CCC(=O)O)C(=O)N[C@@H](CCCNC(=N)N)C(=O)N[C@H](C(=O)N[C@@H](C)C(=O)N[C@@H](C)C(=O)N[C@@H](CCC(N)=O)C(=O)N[C@@H](CCC(=O)O)C(=O)N[C@@H](Cc1ccccc1)C(=O)N[C@H](C(=O)N[C@@H](CC(N)=O)C(=O)N[C@@H](Cc1c[nH]c2ccccc12)C(=O)N[C@@H](CC(C)C)C(=O)N[C@H](C(=O)N[C@@H](C)C(=O)NCC(=O)NCC(=O)N1CCC[C@H]1C(=O)N[C@@H](CO)C(=O)N[C@@H](CO)C(=O)NCC(=O)N[C@@H](C)C(=O)N1CCC[C@H]1C(=O)N1CCC[C@H]1C(=O)N1CCC[C@H]1C(=O)N[C@@H](CO)C(N)=O)[C@@H](C)CC)C(C)C)[C@@H](C)CC)C(=O)O) [compound 13#] | 0.017 nM | 0.13 nM
Y[Aib]EGTFTSDYSIYLEK([AEEA-AEEA-γGlu-Arachidoyl])IAAQEFINWLIAGGPSSGAPPPS-NH2 (N-terminus assumed; SMILES CCCCCCCCCCCCCCCCCCCC(=O)N[C@@H](CCC(=O)NCCOCCOCC(=O)NCCOCCOCC(=O)NCCCC[C@H](NC(=O)[C@H](CCC(=O)O)NC(=O)[C@H](CC(C)C)NC(=O)[C@H](Cc1ccc(O)cc1)NC(=O)[C@@H](NC(=O)[C@H](CO)NC(=O)[C@H](Cc1ccc(O)cc1)NC(=O)[C@H](CC(=O)O)NC(=O)[C@H](CO)NC(=O)[C@@H](NC(=O)[C@H](Cc1ccccc1)NC(=O)[C@@H](NC(=O)CNC(=O)[C@H](CCC(=O)O)NC(=O)C(C)(C)NC(=O)[C@@H](N)Cc1ccc(O)cc1)[C@@H](C)O)[C@@H](C)O)[C@@H](C)CC)C(=O)N[C@H](C(=O)N[C@@H](C)C(=O)N[C@@H](C)C(=O)N[C@@H](CCC(N)=O)C(=O)N[C@@H](CCC(=O)O)C(=O)N[C@@H](Cc1ccccc1)C(=O)N[C@H](C(=O)N[C@@H](CC(N)=O)C(=O)N[C@@H](Cc1c[nH]c2ccccc12)C(=O)N[C@@H](CC(C)C)C(=O)N[C@H](C(=O)N[C@@H](C)C(=O)NCC(=O)NCC(=O)N1CCC[C@H]1C(=O)N[C@@H](CO)C(=O)N[C@@H](CO)C(=O)NCC(=O)N[C@@H](C)C(=O)N1CCC[C@H]1C(=O)N1CCC[C@H]1C(=O)N1CCC[C@H]1C(=O)N[C@@H](CO)C(N)=O)[C@@H](C)CC)[C@@H](C)CC)[C@@H](C)CC)C(=O)O) [compound 10#] | 0.065 nM | 0.056 nM
Y[Aib]EGTFTSDYSIYK([AEEA-AEEA-γGlu-Arachidoyl])EKIAAQEFINWLIAGGPSSGAPPPS-NH2 (N-terminus assumed; SMILES CCCCCCCCCCCCCCCCCCCC(=O)N[C@@H](CCC(=O)NCCOCCOCC(=O)NCCOCCOCC(=O)NCCCC[C@H](NC(=O)[C@H](Cc1ccc(O)cc1)NC(=O)[C@@H](NC(=O)[C@H](CO)NC(=O)[C@H](Cc1ccc(O)cc1)NC(=O)[C@H](CC(=O)O)NC(=O)[C@H](CO)NC(=O)[C@@H](NC(=O)[C@H](Cc1ccccc1)NC(=O)[C@@H](NC(=O)CNC(=O)[C@H](CCC(=O)O)NC(=O)C(C)(C)NC(=O)[C@@H](N)Cc1ccc(O)cc1)[C@@H](C)O)[C@@H](C)O)[C@@H](C)CC)C(=O)N[C@@H](CCC(=O)O)C(=O)N[C@@H](CCCCN)C(=O)N[C@H](C(=O)N[C@@H](C)C(=O)N[C@@H](C)C(=O)N[C@@H](CCC(N)=O)C(=O)N[C@@H](CCC(=O)O)C(=O)N[C@@H](Cc1ccccc1)C(=O)N[C@H](C(=O)N[C@@H](CC(N)=O)C(=O)N[C@@H](Cc1c[nH]c2ccccc12)C(=O)N[C@@H](CC(C)C)C(=O)N[C@H](C(=O)N[C@@H](C)C(=O)NCC(=O)NCC(=O)N1CCC[C@H]1C(=O)N[C@@H](CO)C(=O)N[C@@H](CO)C(=O)NCC(=O)N[C@@H](C)C(=O)N1CCC[C@H]1C(=O)N1CCC[C@H]1C(=O)N1CCC[C@H]1C(=O)N[C@@H](CO)C(N)=O)[C@@H](C)CC)[C@@H](C)CC)[C@@H](C)CC)C(=O)O) [compound 14#] | 0.013 nM | 0.13 nM
Y[Aib]EGTFTSDYSIYK([AEEA-AEEA-γGlu-Arachidoyl])EKIAAQEFVNWLIAGGPSSGAPPPS-NH2 (N-terminus assumed; SMILES CCCCCCCCCCCCCCCCCCCC(=O)N[C@@H](CCC(=O)NCCOCCOCC(=O)NCCOCCOCC(=O)NCCCC[C@H](NC(=O)[C@H](Cc1ccc(O)cc1)NC(=O)[C@@H](NC(=O)[C@H](CO)NC(=O)[C@H](Cc1ccc(O)cc1)NC(=O)[C@H](CC(=O)O)NC(=O)[C@H](CO)NC(=O)[C@@H](NC(=O)[C@H](Cc1ccccc1)NC(=O)[C@@H](NC(=O)CNC(=O)[C@H](CCC(=O)O)NC(=O)C(C)(C)NC(=O)[C@@H](N)Cc1ccc(O)cc1)[C@@H](C)O)[C@@H](C)O)[C@@H](C)CC)C(=O)N[C@@H](CCC(=O)O)C(=O)N[C@@H](CCCCN)C(=O)N[C@H](C(=O)N[C@@H](C)C(=O)N[C@@H](C)C(=O)N[C@@H](CCC(N)=O)C(=O)N[C@@H](CCC(=O)O)C(=O)N[C@@H](Cc1ccccc1)C(=O)N[C@H](C(=O)N[C@@H](CC(N)=O)C(=O)N[C@@H](Cc1c[nH]c2ccccc12)C(=O)N[C@@H](CC(C)C)C(=O)N[C@H](C(=O)N[C@@H](C)C(=O)NCC(=O)NCC(=O)N1CCC[C@H]1C(=O)N[C@@H](CO)C(=O)N[C@@H](CO)C(=O)NCC(=O)N[C@@H](C)C(=O)N1CCC[C@H]1C(=O)N1CCC[C@H]1C(=O)N1CCC[C@H]1C(=O)N[C@@H](CO)C(N)=O)[C@@H](C)CC)C(C)C)[C@@H](C)CC)C(=O)O) [compound 12#] | 0.03 nM | 0.17 nM
Y[Aib]EGTFTSDYSIYLEK([AEEA-AEEA-γGlu-Arachidoyl])IAAQEFVNWLIAGGPSSGAPPPS-NH2 [compound 9#] | 0.049 nM | 0.04 nM
